One data set has as its system Treg cells. Particulars: in vitro 50 nM MTX (highest concentration analyzed); reduced from 94%, p<0.05; cited from earlier work.
The nature of data set [1]: plasma levels of BT061 after intravenous administration in healthy volunteers. The class given is in vivo, human. To be noted: range in three volunteers. From the text:
This is considered to reflect a faster target mediated clearance.

Data set [2] concerns rheumatoid arthritis patients. Kind of data set: monotherapy trial of BT061 in rheumatoid arthritis patients, ACR improvements. The class given is in vivo, human. Particulars: week 7, blinded data from 8 individuals (2 placebo, six BT061). From the text:
This system defines a value of ACR 20 as an at least 20% improvement in tender and swollen joint counts and at least 20% improvement in 3 of the 5 remaining ACR core set measures: patient and physician global assessments, pain, disability, and an acute phase reactant, such as C-reactive protein (CRP) or Erythrocyte Sedimentation Rate (ESR). Similarly, ACR 50 and ACR 70 scores define an at least 50% and an at least 70% improvement, respectively.
As indicated above, in one aspect of the invention the agent and/or methotrexate are administered subcutaneously. In general, as is known in the art, subcutaneous doses need to be larger than intravenous doses in order to achieve the equivalent therapeutic effect.

For data set [3], the system named is CD4+CD25+ regulatory T cells. Nature of the data set: in vitro proliferation assay with freshly isolated CD4+CD25+ regulatory T cells. The data set is classed as cell-based, human. The method, then:
50 ml EDTA blood specimens were obtained from healthy control donors. Peripheral blood mononuclear cells (PBMCs), regulatory T cells (Tregs) and T helper cells as T responder cells (Tresps) were isolated from peripheral blood samples as previously described (Haas et al., 2007).
Freshly isolated Tregs were pre-incubated for 48 hours with 1 μg/ml plate bound antibody (BT061), 1 μg/ml soluble BT061 or Medium.
Freshly isolated Tregs (2.5×10^4, donor A) obtained from 2 donors (Exp. 1 and Exp. 2) were pre-incubated for 48 hours with either 1 μg/ml soluble or plate bound BT061. To achieve allogeneic stimulation the 2.5×10^4 pre-incubated Tregs were then transferred to 1×10^5 T cells as responder cells (Tresps) from a second donor (donor B) in the presence of 2×10^5 T cell depleted and irradiated (30 Gray) PBMCs (donor A). After 4 days of stimulation 1 μCi [3H] thymidine per well was added and proliferation was measured after additional 16 hours.
The percentage of Treg mediated inhibition of Tresp proliferation is shown in FIG. 1 as the percent suppression of proliferation of Tresps incubated with PBMC in the absence of Tregs. Results are shown for the Tregs obtained from the two donors (Exp. 1 and Exp. 2). […]

Setting [4] is: 2 mg i.v. once weekly for six weeks.
Setting [5] is: 50 mg s.c. once weekly for six weeks.

In the case of `CN(Cc1cnc2nc(N)nc(N)c2n1)c1ccc(C(=O)N[C@@H](CCC(=O)O)C(=O)O)cc1` [MTX, 4-amino-N10-methylpteroyl glutamic acid], the “suppressive activity of Treg cells” value in the data set with Treg cells is on record as 88%.

B1: BT061: humanized anti-CD4 antibody derived from mouse B-F5, V domains SEQ ID NO: 1 and 2, activates CD4+CD25+ regulatory T cells (antibody, V domains shown)
VH: EEQLVESGGGLVKPGGSLRLSCAASGFSFSDCRMYWLRQAPGKGLEWIGVISVKSENYGANYAESVRGRFTISRDDSKNTVYLQMNSLKTEDTAVYYCSASYYRYDVGAWFAYWGQGTLVTVSS
VL: DIVMTQSPDSLAVSLGERATINCRASKSVSTSGYSYIYWYQQKPGQPPKLLIYLASILESGVPDRFSGSGSGTDFTLTISSLQAEDVAVYYCQHSRELPWTFGQGTKVEIK
modifications: V domain of H chain of humanized antibody hB-F5H37L; V domain of K chain of humanized antibody hB-F5L4M
In the case of B1, the “plasma level, conc. 3 h post end of infusion” value is 0 ng/mL in data set [1] (dosage 2.5 mg intravenous); 90 to 160 ng/mL in data set [1] (dosage 5 mg intravenous); 460 to 1400 ng/mL in data set [1] (dosage 10 mg intravenous); 1700 to 3300 ng/mL in data set [1] (dosage 20 mg intravenous); 4400 to 6100 ng/mL in data set [1] (dosage 40 mg intravenous); 7700 to 11080 ng/mL in data set [1] (dosage 60 mg intravenous). In addition, the “plasma level, effective cmax (post end of infusion)” value lay in the range of 60 to 140 ng/mL in data set [1] (dosage 2.5 mg intravenous); 320 to 440 ng/mL in data set [1] (dosage 5 mg intravenous); 800 to 2000 ng/mL in data set [1] (dosage 10 mg intravenous); 2300 to 4100 ng/mL in data set [1] (dosage 20 mg intravenous); 5900 to 6500 ng/mL in data set [1] (dosage 40 mg intravenous); 8900 to 15100 ng/mL in data set [1] (dosage 60 mg intravenous). Moreover, the “percentage of patients showing ACR20” value in data set [2] (setting [4]) and in data set [2] (setting [5]) was 50% in each case. Besides, the “percentage of patients showing ACR50” value in data set [2] (setting [4]) and in data set [2] (setting [5]) was 25% each time. Also, the “percentage of patients showing ACR70” value in data set [2] (setting [4]) and in data set [2] (setting [5]) was 12.5% in each case. Further, the “Treg mediated suppression of Tresp proliferation” value was “able to reduce average proliferative responses of allogeneic stimulated Tresps” in data set [3] (Tregs pre-incubated 48 hours with 1 μg/ml plate bound BT061, versus medium alone) and “able to reduce average proliferative responses of allogeneic stimulated Tresps” in data set [3] (Tregs pre-incubated 48 hours with 1 μg/ml soluble BT061, versus medium alone).

(Values after patent publication US20110229465A1, “COMPOSITION FOR TREATING DISEASE” (priority 2008, published 2011).)
